Assay [1] addresses 3f8 IgG with Fc variant 3a-11, displayed on CHO cells (human). In words: flow cytometry on cells. Background: A flow cytometer gives signals particle by particle.
Assay [2] addresses 3f8 IgG with Fc variant V12, displayed on CHO cells (human). In words: flow cytometry on cells.
Assay [3] deals with 3f8 IgG with Fc variant 3a-3, displayed on CHO cells (human). The assay can be described thus: flow cytometry on cells.
The target in assay [4] is 3f8 IgG with Fc variant 3a-8, displayed on CHO cells (human). In words: flow cytometry on cells.
In assay [5] the target is 3f8 IgG with Fc variant 3a-4, displayed on CHO cells (human). In words: flow cytometry on cells.
The target in assay [6] is 3f8 IgG with Fc variant LPL, displayed on CHO cells (human). The assay can be described thus: flow cytometry on cells.
The target of assay [7] is 3f8 IgG with Fc variant 3a-10, displayed on CHO cells (human). The assay can be described thus: flow cytometry on cells.
For assay [8], the target named is 3f8 IgG with Fc variant 3a-2, displayed on CHO cells (human). In words: flow cytometry on cells.
The target in assay [9] is 3f8 IgG with Fc variant 3a-1, displayed on CHO cells (human). The assay can be described thus: flow cytometry on cells.
The target in assay [10] is 3f8 IgG with Fc variant 3a-5, displayed on CHO cells (human). In words: flow cytometry on cells.
Assay [11] addresses 3f8 IgG with Fc variant 3a-7, displayed on CHO cells (human). The assay can be described thus: flow cytometry on cells.
Assay [12] addresses 3f8 IgG with Fc variant 3a-9, displayed on CHO cells (human). In words: flow cytometry on cells.
The target of assay [13] is 3f8 IgG with Fc variant 3a-14, displayed on CHO cells (human). The assay can be described thus: flow cytometry on cells.
Assay [14] has as its target FcγRIIIa-176V extracellular domain, biotinylated (human) (UniProt P08637). In words: BLI. For orientation: BLI is a label-free optical method that tracks binding on a fibre tip over time.
Assay [15] addresses FcγRIIb extracellular domain, biotinylated (human) (UniProt P31994). The assay can be described thus: BLI.
The target of assay [16] is FcγRIIIa-176F extracellular domain, biotinylated (human) (UniProt P08637). In words: BLI.
The target in assay [17] is FcγRIIa-131H extracellular domain, biotinylated (human) (UniProt P12318). In words: BLI.
For assay [18], the target named is FcγRIIa-131R extracellular domain, biotinylated (human). In words: BLI.
FcγRIIa-131R extracellular domain, biotinylated (human), sequence (P12318 34-217): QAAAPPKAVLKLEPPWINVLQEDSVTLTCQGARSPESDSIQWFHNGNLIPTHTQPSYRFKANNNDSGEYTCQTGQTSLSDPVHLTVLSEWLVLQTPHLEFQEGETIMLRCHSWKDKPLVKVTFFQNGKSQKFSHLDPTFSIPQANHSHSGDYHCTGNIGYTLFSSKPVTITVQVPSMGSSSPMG
The target of assay [19] is FcγRIIIa-176V extracellular domain, biotinylated (human) (UniProt P08637). In words: BLI. The source holds these as a separate data set.
In assay [20] the target is FcγRIIb extracellular domain, biotinylated (human) (UniProt P31994). In words: BLI. This is another data set of the same source.
Assay [21] concerns the target FcγRIIIa-176F extracellular domain, biotinylated (human) (UniProt P08637). The assay can be described thus: BLI. This is another data set of the same source.
Assay [22] deals with FcγRIIa-131H extracellular domain, biotinylated (human) (UniProt P12318). The assay can be described thus: BLI. The source holds these as a separate data set.
In assay [23] the target is FcγRIIa-131R extracellular domain, biotinylated (human). In words: BLI. The source holds these as a separate data set.

Read-outs that look alike come from different tables or passages of the source.

With “FcγRIIb extracellular domain, biotinylated (from UniProt P31994 43-217) (receptor)”, the FcγRIIb MFI / TNFα MFI in assay [1] is 12.9 MFI ratio. In assay [2], this substance returned a FcγRIIb^High cells (%) of 7.39%.
In the case of “FcγRIIIa-176F extracellular domain, biotinylated (from UniProt P08637 17-208) (receptor)”, the FcγRIIIa-176F MFI / TNFα MFI was determined as 9.3 MFI ratio in assay [3]; 13.2 MFI ratio in assay [4]; 8.6 MFI ratio in assay [5]; 7.5 MFI ratio in [6]; 6.9 MFI ratio in assay [7]; 11.1 MFI ratio in assay [8]. In addition, the FcγRIIIa-176F MFI / TNFα MFI in [9] was 8 MFI ratio; in assay [10], 9.6 MFI ratio; in [12] it was 9.2 MFI ratio. Moreover, the FcγRIIIa-176F^High cells (%) came out at 0.81% in assay [3]; 2.23% in assay [4]; 0.93% in assay [5]; 0.25% in assay [6]; 0.61% in [8]; 0.1% in assay [9]. The FcγRIIIa-176F^High cells (%) stood at 0.8% in [10], 1.15% in assay [11] and 1.15% in assay [13].
For orientation: Kd means the concentration at which binding is half-saturated. The low end stands for tighter binding, the high end for weaker binding. In the case of trastuzumab IgG with WT Fc (antibody), the Kd came to 390 nM in [14]; 580 nM in assay [15]; 770 nM in assay [16]; 390 nM in assay [17]; 520 nM in assay [18]; 430 nM in [19]. Also, the Kd in [20] was determined as 570 nM; in assay [21], 640 nM; in assay [22], 240 nM; in assay [23], 330 nM.

Values taken from PMC11259757.
